Measured values: the nanobody polyreactivity screen of Harvey et al. (2022)

Experiment: yeast display, Sf9 membrane polyspecificity reagent, FACS + sequencing; frameworks hold sequencing errors
Summary of the method: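 Sorting gates, low and high (top ~1%), were placed on anti-HA fluorescence to track expression and on streptavidin fluorescence to track reagent binding. A clone's polyreactivity label is taken from the gate it came out of. The reagent was 10% biotinylated, detergent-solubilized Sf9 membrane, applied for 1 hour at 4 °C to galactose-induced yeast display cells.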

Row | Sequence | polyreactivity (PSR sort gate)
1 | QVQLVESGGGLVQAGGSLRLSCAASGRTFLGYAMGWYRQAPGKERELVAAISYSGSSTYYADSVKGRFTISRDNAKNTVYLQMNSLKPEDTAVYYCAAQFYFLFDYWGQGTQVTVSS | low polyreactivity
2 | QVQLVESGGGLVQAGGSLRLRCAASGRTFARYAMGWYRQAPGKERELVAAISWSGGSTYYADSVKARFTISRDNAKNTVYLQMNSLKPVDTAVYYCAARRPTSPRRYESWGQGTQVTVSS | high polyreactivity
3 | QVQLVESGGGLVQAGGSLRLSCAASGFIFVDYTMGWYRQAPGKERELVAAITWTGGSTYADSVKGRFTISRDNAKNTVYLQMNSLKPEDTAVYYCAAGQGPDMDYWGQGTQVTVSS | low polyreactivity
4 | QVQLVESVGRLVQAGGSLRLSCAASGSIIRSYTKGWYRQAPGKEWELVAASSGRAGSTYYADSVKGRFTISRDIAKNTVYLQMPGLKPEDTAVYYCAVILGGRAQSYYWGHGTQVTVSS | high polyreactivity
5 | QVQLVESGGGLFQAGGSLRLSCAASGSTFYTNAMGWYRQAPGKERELVAAISWSGGSTYYADSVKGRFTIARDNAKNPVYLQLNSLKPEDTAVYYCDVSGTHFRYDYWGQGTQVTVSS | high polyreactivity
6 | QVQLVESGGGLVQAGGSLRLSCAASGITFTRYAMGWYRQAPGKERELVAAISSGGRTNYADSVKGRFTISRDNAKNTVYLQMNSLKPEDTGVYYCNAAGHRWDPRYHYWGQGTQVTVSS | high polyreactivity
7 | QVQLVESGGGLVQAGGSLRLSCAASGGIFDPYAMGWYRQAPGKERELVAAITNSGGSTYYADSVKGRFTISRDNAKNTVYLQMNSLKPEDTAVYYCAAEGLYVGYDYWGQGTQVTVSS | low polyreactivity
8 | QVQLVESGGGLVQAGGSLRLSCAASGRTFSGYAMGWYRQAPGKERELVAAITSSGSSTYYADSVKGRFTISRDNAKNTVYLQMNSLKPEDTAVYYCAATPQAHSERYYYQRKYDYWGQGTQVTVSS | low polyreactivity
9 | QVQLVESGGGLVQAGGSLRLSCAASGRIFRIYAMGWNRQAPGKERELVARLTYSGGSTYYADSVKGRFTISRDNAKNTVYLQMNSLKPEDTAVYYCAADWLGYQYGYWGQGTQVTVSS | low polyreactivity
10 | QVQLVESGGGLVQAGGSLRLSCAASGRTMWAYSMGWYRPAHGKERELVAAITGSGGSTYYADSVKGRFTISRDNAKNTVYLQMNSLKPEDTAVYYCAAYSRTLHYDSWGQGTHVTVSS | high polyreactivity
11 | QVQLVESGGGLVQAGGSLRLSCAASGSTFYSYAMGWYRQAPGKERELVAAITSGGSTNYADSVKGRFTISRDNAKNTVYLQMNSLKPEDTAVYYCARKYWHRSYGYDYWGQGTQVTVSS | low polyreactivity
12 | QVQLVDSGGGLVQAGGSLRLSCAASGSNYVDYDMGWYRQAPGKERDLVAALTYSGARTYYADSVKGRFTISRDNAENTVYLQMNSLKPEDTAVYYCNAAGYPYPYRGDYDYWGQGTQVTVSS | low polyreactivity
13 | QEQLQESGGGLVQAGGSLRLSCAASGTISYAGPMGWYRQAPGKEREFVAGIGVGSNTNYADSVKGRYTIIRDNAKNTVYLQMNSLKPEDTAVYYCAVGGYAPLGRPYWGQGTQVTVSS | low polyreactivity
14 | QVQHVESGGGLVQAGGSLRLSCAASGRTFRNNAMGWYRQAPGKERELVAAITSGGSTYYADSVKGRFTISRDNAKNTVYLQMNSLKPEDTAVYYCAAVPEYYEYSPYDYWGQGTQVTVSS | low polyreactivity
15 | QVQLVESGGGLVQAGGSLRLSCAPSGSIFSYYDIGWYIQAPGKERELVAAISWDGGDRTYADSVKGRFTISRDNAKNTVYLQMTSLKPEDTAVYYFAAGWDASYGYDYWGQGTQLTVSS | low polyreactivity
16 | QVQLVESGGGLVQAGGSLRLSCAASGRIFGPNAMGWYRQAPGKERELVASISYSGGSTYYADSVKGRFTISRDNAKNTVYLQMNSLKPEDTAVYYCAKGGYWRGYNYWGQGTQVTVSS | low polyreactivity
17 | QVQLQESGGGLVQAGGSLRLSSAASGTIFRFRYMGWHRQAPGKERELVAGINGGTTTYYADSVIGRFTISRDNAKNTVYLQMNSLKPDDTAVYNCAAGASRLTYYDYWGQGTQVTVSS | low polyreactivity
18 | QVQLVESGGGLVQAGGSLRLSCAASGSILDSNAMGWYRPAPGKERELVAAITSGGSTYYADSVKGRFTISRDNAKNTVYLQMNSLKPEDTAVYYCAAAYLGYGAVQPSYEGGYWGQGTQVTVSS | low polyreactivity
19 | QVQLVESGGGLVQEGGSLRLSCAASGITFPDYAMGWYRQAPGKERELVAAISRGVNTYYADSVKGRFTISRDNAKNTVYLQMNSLKPEDTAVYYCNRRGSSGYDYWGLGTQVTVSS | low polyreactivity
20 | QVQLVESGGGLVQAGGSLRLSCAASGRIFGLNAMGWYRQAPGKERELVAAIDRSGASTYYADSVKGRFTISRDNAKNTVYLQMNSLKPEDTAVYYCAAESYLSGEEYDYWGQGTQVTVSS | high polyreactivity
21 | QVQLVESGGGLVQAGGSLRLSCAASGITFRRYAMGWYRQAPGPEREFVATISGIGGNTYYADSVKGRFTISRANAKNPVYLQMNSLKPEDPAVYYCAADLWAGTYGEYDYWGQGPQVTVSS | high polyreactivity
22 | QVQLVESGGGLVQAGGSLRLSCAASGFIYNKYTMGWYRQAPGKERELVAAIRSSGGSTYYADSVKGRFTISRDNAKNTVYLQMNSLKPEDTAVYYCNALPYQVWKRYSWGQGTQVTVSS | high polyreactivity

Row | Sequence | polyreactivity (PSR sort gate)
23 | QVQLEESGGGLVQAGGSLRLSCAASGRIFRANSMGWYRQEPGKERELVAAISFSGGGTYYADSVKGRFKISRDNAKNTVYLQMNCLKPEDTAVYYCAADWYVYSPYDYWGQGTQVTVSS | low polyreactivity
24 | QVQLVESGGGLVQAGGSLRLSCAATGIIFHRYVMGWYRQAPGKERELVAVITQRGGSTYYADSVKGRFTISRDNAKNTVYLQMNSLKQEDTAVYYCAARSQYRDRTGQYGYWGQGSQVTVSS | high polyreactivity
25 | QVQLVESVGGLVQAGGSLRLSCASSGRIFAWYGMGSYRQAPGKEMELVAAINSGGRTYYEDSVKGRFTISRVNAKNTVYLQMNSLKPEDTAVYYCAAKLAAYGWRFHYGYWGQGTQVTVSS | high polyreactivity
26 | QVQLVESGGGLVQAGGSLRLSCAASGYIFGWNAMGWYRQAPGKERELVASIRWGGGSTYYADSVKGRFTISRDNAKNTVYLQMNSLKPEDTAVYYCAAKRRYYGPWSRIGYDYWGQGTQVTVSS | low polyreactivity
27 | QVQLVESGGGLVQAGGSLRLSCAASGSIFDPNAMGWYRQAPGKERELLADIDSSDGSTYYADSVKGRFTISRDNAKNTVYLQMNSLKPEDTAVYYCNARYGGWVWSTYDHWGQGTQVTVSS | low polyreactivity
28 | QVQLVESGGGLVQAGGSLRLSCAASGFIFHKYAMGWYRQAPGKERELVARITGSGASTFYADSVKGRFTISRDNAKNTVYLQMNSLKPEDTAVYYCAATIGSLLKYNRHRYYYWGQGTQVTVSS | high polyreactivity
29 | QVQLHESPGGLVLAGGSLRLSCAESGYISWSFTMGLYRKAPGKEREFVAGITYGGISYYADSVKGRFTISRDNAIITVYLQMNTLKPEDTAVYYCAAPQTNPYVYVYWGQGTQVTVSS | high polyreactivity
30 | QVQLVESGGGLVQAGGSLRLSCAASGRIYWNTMGWYRQAPGKERQLVASISTGGGRTYYADSVKGRFTISRDNAKNTVYLQMNSLKPEDTAVYYCAARRGAGYSRFNYWGQGTQVTVSS | high polyreactivity
31 | QVQLVESGGGLVQAGCSLRLSCAASGSTYIRNAMGWYRQAPGKERELVAAISTSGSRTYYADSVKGRFTISRDNAKNTVYLQMNSLKPEDTAVYYCAKVPAGSRIEYDYCGQGTQVTVSS | high polyreactivity
32 | QLQLVESGGGLVQAGGSLRLSCAASGGIFPNYVMGWYRKAPGKERELVAGITSGGNTNYADSVKGRFTISRDNAKNTVYLQMNSLKPEDTAVYYCAADGYRYSVYLIRNPMDYWGQGTQVTVSS | low polyreactivity
33 | QVQLVESGGGLVQAGGSLRLSCAASGSTFWPYAMGWYRPAPGKERELVAAITNSGGSTYYADSVKGRFTISRDNAKYTVYLQMNSLKPEDTAVYYCAVRGVIYSYTPVNTYDYWGQGTQVTVSS | low polyreactivity
34 | QVQLVESGGGLVQAGGSLRLSCAASGSTFPRNAMGWYRQAPGKERELVAAISRSGGSTYYADSVKGRFTISRDNAKNTVYLQINSLKPEDTAVYYCAASYYGLPRYRYEYWGQGTQVTVSS | high polyreactivity
35 | QVQLVESGGGLVQAGGSLRLSCPASGNIFWWNARGWYRQAPGKERELVAAITSDSTTYYADSVKGRFTISRDNAKNTVYLQMNSLKPEDTAVYYCAAYSYGGQGVDYGYWGQGTQVTVSS | low polyreactivity
36 | QVQLEESGGGLVQAGGSLRLSSAASGSTFCWYAMGGYRKEPGKERELVAAISIGGSTKYADSVKGRLTISRDNAKNSVYLQMNRMKPEYSAVYYCAAEVSYHYVPYGYWGQGTQVTVSS | low polyreactivity
37 | QVQLVESGGGLVQAGGSLRLSCAASGSIFRYNAMGRYRQAPGKERELVAAITSNGGSTYYADSVKGRFTISRDNAKNTVYLQMNCQKPEDTAVYYCNAVYTFTRRYGYWGQGTQVTVSS | high polyreactivity
38 | QDQRVESGGGLDQAGGSLRLSCAASGSIFLVYAMGWYRQAPGKEMEFVAAITWSGGSTYYADSVKGRFTISRDIAKNTVYLQMNSLKPEDTAVYYCAVEIWIPTWYGLSGEYDYWGHGTQVTVSS | low polyreactivity
39 | QVQLVESGGGLVQAGGILRLSCAASGLTFYGYAMGWYRQAPGKERELVAAITRGGGSTYYADSVKGRFTISRDNAKNTVYLQMNSLKPDDTAVYYCAADQTGWGDTYYYWGQGTQVTVSS | low polyreactivity
40 | QVQLVESGGGLVQAGGSLRLSCAASGRIIYKNAMGWYRQAPGKERELVAAITSSGGSTYYADSVKGRFTISRDNAKNTVYLQMNSLKPEDTAVYYCAAYAYGRFGKLNYWGQGTQVTVSS | low polyreactivity
41 | QVQLVESGGGLVQAGGSLRLSCAASGSIFRTYSMGGYRQAPGKERELVATITFGGVSTYYADSVKGRFTISRDNAKNTVYLQMNSLKPEDTAVYYCAADVYTRFWRVYRFDYWGQGTQVTVSS | low polyreactivity
42 | QVQLVESGGGLVQAGGSLRLSCAASGRTFWNYAMGWYRQAPGKERELVAAISSSGGTTYYADSVKGRFTISRDNAKNTVYLQMNSLKPEDTAVYYCAATGVSKPQRSFGYWGQGTQVTVSS | low polyreactivity
43 | QVQLVESGGGLVQAGGSLRLSCAASGTFYRNAMGWYRQAPGKERELVAAISSGSNTDYADSVKGRFTISRDNAKNTVYLQMNSLKPEDTAVYYCNADRGDLYELRGSGYLDGYWGQGTQVTVSS | low polyreactivity
